From patent US20240366776A1 (Hoffmann-La Roche, published 2024)

B1: PD1-IL2-R07-A04 (scFv)
chain: QVQLVQSGAEVKKPGASVKVSCKASGYTFTDYYMHWVRQAPGQGLEWMGIINPRAGYTSYALKFQGRVTMTRDTSTSTVYMELSSLRSEDTAVYYCTSGMDVWGQGTLVTVSSASGGGGSGGGGSGGGGSHASDIQMTQSPSSLSASVGDRVTITCRASQSISTWLAWYQQKPGKAPKLLIYAASSLQSGVPSRFSGSGSGTDFTLTISSLQPEDFATYYCQQSYSFPVTFGQGTKVEIK
B2: PD1-IL2-R02-A08 (scFv, V domains shown)
VH: QVQLVQSGAEVKKPGASVKVSCKVSGYTFTSYDINWVRQAPGQGLEWMGWINPNSGDTGYAQKFQGRVTMTRDTSTSTVYMELSSLRSEDTAVYYCARDTGLGYYYGSGDFDYWGQGTLVTVSS
VL: DIQMTQSPSSLSASVGDRVTITCQASQDIHNYLNWYQQKPGKAPKLLIYDVSNLETGVPSRFSGSGSGTDFTLTISSLQPEDFATYYCQQAISFPLTFGGGTKVEIK
notes: cf
B3: PD1-IL2-R07-A09 (SEQ ID NO: 34) (scFv)
scFv: QVQLVQSGAEVKKPGASVKVSCKASGYTFTSYYMHWVRQAPGQGLEWMGIINPSDGSTTYAQSFQGRVTMTRDTSTSTVYMELSSLRSEDTAVYYCASGWDVWGQGTLVTVSSASGGGGSGGGGSGGGGSHASDIVMTQSPDSLAVSLGERATINCKSSQSVFSSANNKNYLAWYQQKPGQPPKLLIYWASTRESGVPDRFSGSGSGTDFTLTISSLQAEDVAVYYCQQYFGTPVTFGGGTKVEIK
notes: V5-tagged in the assay
B4: PD1-IL2-R02-B05 (scFv)
chain: QVQLVQSGAEVKKPGASVKVSCKASGYTFTNYYIHWVRQAPGQGLEWMGIINPRAGYTSYALKFQGRVTMTRDTSTSTVYMELSSLRSEDTAVYYCAGGWLDWGQGTLVTVSSASGGGGSGGGGSGGGGSHASDIQMTQSPSSLSASVGDRVTITCRASQSISSWLAWYQQKPGKAPKLLIYAASSLQSGVPSRFSGSGSGTDFTLTISSLQPEDFATYYCQQSFTMPITFGQGTRLEIK
B5: PD1-IL2-R02-C02 (SEQ ID NO: 31) (scFv)
scFv: QVQLVQSGAEVKKPGVSVKVSCKASGYTFPRSYIHWVRQAPGQGLEWMGWINPHSGDTYYAQNFQGRVTMTRDTSTSTVYMELSSLRSEDTAVYYCARDTGLGYYYGSGDFDYWGQGTLVTVSSASGGGGSGGGGSGGGGSHASDIQMTQSPSSLSASVGDRVTITCRASQSISRYLNWYQQKPGKAPKLLIYTASSLQSGVPSRFSGSGSGTDFTLTISSLQPEDFATYYCQQANRFPLTFGPGTKVDIK
notes: V5-tagged in the assay
B6: PD1-IL2-R02-A11 (scFv, V domains shown)
VH: QVQLVQSGAEVKKPGASVKVSCKASGHTFTRYYMHWVRQAPGQGLEWMGIINPSGGYATYAQKFQGRVTMTRDTSTSTVYMELSSLRSEDTAVYYCASGWDVWGQGTLVTVSS
VL: DIQMTQSPSSLSASVGDRVTITCRASQSINSWLAWYQQKPGKAPKLLIYATSTLESGVPSRFSGSGSGTDFTLTISSLQPEDFATYYCQQSYSFPPTFGQGTKVEIK
notes: cf
B7: PD1-IL2-R06-E04 (SEQ ID NO: 33) (scFv)
scFv: QVQLVQSGAEVKKPGASVKVSCKASGYTFTRYYIHWVRQAPGQGLEWMGWINAYNGDTNYAQKLQGRVTMTRDTSTSTVYMELSSLRSEDTAVYYCARDSYYYDSFDYWGQGTLVTVSSASGGGGSGGGGSGGGGSHASDIQMTQSPSSLSASVGDRVTITCRASQTITDWLAWYQQKPGKAPKLLIYGASNLQGGVPSRFSGSGSGTDFTLTISSLQPEDFATYYCQQYYSSWTFGQGTKVEIK
notes: V5-tagged in the assay
B8: PD1-IL2-R02-B07 (scFv)
chain: QVQLVQSGAEVKKPGASVKVSCKASGDTFTRHYVHWVRQAPGQGLEWMGIINPSGGYASYAQKFQGRVTMTRDTSTSTVYMELSSLRSEDTAVYYCAAGLFIWGQGTLVTVSSASGGGGSGGGGSGGGGSHASDIQMTQSPSSLSASVGDRVTITCRASQSIGRWLAWYQQKPGKAPKLLIYSASNLETGVPSRFSGSGSGTDFTLTISSLQPEDFATYYCQQANSFPVTFGPGTKVDIK
B9: PD1-R04-C10 (scFv)
scFv: MSTSTEQKLISEEDLQVQLVQSGAEVKKPGASVKVSCKASGYTFTTYYMHWVRQAPGQGLEWMGIINPSGGGTLYAQKFQGRVTMTRDTSTSTVYMELSSLRSEDTAVYYCAAGLFIWGQGTTVTVSSASGGGGSGGGGSGGGGSHASDIVMTQSPDSLAVSLGERATINCKASQSLLHSSSNKNYLAWYQQKPGQPPKLLIYWASTRESGVPDRFSGSGSGTDFTLTISSLQAEDVAVYYCQQYYSTPITFGPGTKVDIKGSGLNDIFEAQKIEWHEGKPIPNPLLGLDST
notes: tied by the comment 'PD1_R04_C10- Internal anti-PD1 mAb' of PEP001315
B10: PD1-IL2-R02-C03 (SEQ ID NO: 32) (scFv)
scFv: QVQLVQSGAEVKKPGASVKVSCKASGYTFPRYHIHWVRQAPGQGLEWMGMINPSGGTTTYAQKFQGRVTMTRDTSTSTVYMELSSLRSEDTAVYYCARDTGLGYYYGSGDFDYWGQGTLVTVSSASGGGGSGGGGSGGGGSHASDIQMTQSPSSLSASVGDRVTITCRASQSISSWLAWYQQKPGKAPKLLIYAASSLQSGVPSRFSGSGSGTDFTLTISSLQPEDFATYYCQQSHSFPLTFGGGTKVEIK
notes: V5-tagged in the assay
B11: PD1-R07-A05 (scFv)
scFv: QVQLVQSGAEVKKPGASVKVSCKASGYTFTTYYVHWVRQAPGQGLEWMGIINPSGGSTSYAQNFQGRVTMTRDTSTSTVYMELSSLRSEDTAVYYCASGWDVWGQGTTVTVSSASGGGGSGGGGSGGGGSHASEIVMTQSPATLSVSPGERATLSCRASQSVNTYLAWYQQKPGQAPRLLIYGASTRATGIPARFSGSGSGTEFTLTISSLQSEDFAVYYCQQYGSSPVTFGQGTRLEIK
B12: AF4389 (other)
heavy 1: APTSSSTKKTQLQLEHLLLDLQMILNGINNYKNPKLTDMLTFEFYMPKKATELKHLQCLERELKPLEEVLNLAQSKNFHLRPRDLISNINVIVLELKGSETTFMCEYADETATIVEFLNRWITFCQSIISTLTGGGGSGGGGSGGGGSGGGGSQVQLVQSGAEVKKPGASVKVSCKASGHTFTRYYMHWVRQAPGQGLEWMGIINPSGGYATYAQKFQGRVTMTRDTSTSTVYMELSSLRSEDTAVYYCASGLFIWGQGTLVTVSSAKTTAPSVYPLAPVCGDTTGSSVTLGCLVKGYFPEPVTLTWNSGSLSSGVHTFPAVLQSDLYTLSSSVTVTSSTWPSQSITCNVAHPASSTKVDKKIEPRGPTIKPCPPCKCPAPNAAGGPSVFIFPPKIKDVLMISLSPIVTCVVVDVSEDDPDVQISWFVNNVEVHTAQTQTHREDYNSTLRVVSALPIQHQDWMSGKEFKCKVNNKDLGAPIERTISKPKGSVRAPQVYVLPPPEEEMTKKQVTLTCMVTDFMPEDIYVEWTNNGKTELNYKNTEPVLDSDGSYFMYSDLRVEKKNWVERNSYSCSVVHEGLHNHHTTESFSRTPGK
heavy 2: QVQLVQSGAEVKKPGASVKVSCKASGHTFTRYYMHWVRQAPGQGLEWMGIINPSGGYATYAQKFQGRVTMTRDTSTSTVYMELSSLRSEDTAVYYCASGLFIWGQGTLVTVSSAKTTAPSVYPLAPVCGDTTGSSVTLGCLVKGYFPEPVTLTWNSGSLSSGVHTFPAVLQSDLYTLSSSVTVTSSTWPSQSITCNVAHPASSTKVDKKIEPRGPTIKPCPPCKCPAPNAAGGPSVFIFPPKIKDVLMISLSPIVTCVVVDVSEDDPDVQISWFVNNVEVHTAQTQTHREDYNSTLRVVSALPIQHQDWMSGKEFKCKVNNKDLGAPIERTISKPKGSVRAPQVYVLPPPEKEMTKKQVSLTCLVKDFMPEDIYVEWTNNGKTELNYKNTEPVLKSDGSYFMYSKLTVEKKNWVERNSYSCSVVHEGLHNHHTTKSFSRTPGGGGSGGGSHHHHHH
light: DIQMTQSPSSLSASVGDRVTITCRASQSINSWLAWYQQKPGKAPKLLIYATSTLESGVPSRFSGSGSGTDFTLTISSLQPEDFATYYCQQYYRFPVTFGQGTKVEIKRADAAPTVSIFPPSSEQLTSGGASVVCFLNNFYPKDINVKWKIDGSERQNGVLNSWTDQDSKDSTYSMSSTLTLTKDEYERHNSYTCEATHKTSTSPIVKSFNRNEC

target: T1, human IL-2 (human, UniProt P60568 21-153, biotin-labeled in the IL2RB blocking assay); assay: HTRF
T1 construct: also called biotin-labeled IL-2 (Acro Biosystems IL2-H82E4)
T1 sequence (P60568 21-153 limits assumed): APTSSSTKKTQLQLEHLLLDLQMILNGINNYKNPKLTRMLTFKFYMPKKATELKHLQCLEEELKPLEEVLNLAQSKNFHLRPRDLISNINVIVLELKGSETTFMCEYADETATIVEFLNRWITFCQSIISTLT

| Binder | IL2 Binding |
| --- | --- |
| B1 | 973 |
| B2 | 520 |
| B3 | 2040 |
| B4 | 2490 |
| B5 | 298 |
| B6 | 1560 |
| B7 | 247 |
| B8 | 628 |
| B9 | 4 |
| B10 | 293 |
| B11 | 19 |

target: PD-1 (human, UniProt Q15116 25-167, limits assumed); assay: HTRF
Sequence (Q15116 25-167 limits assumed): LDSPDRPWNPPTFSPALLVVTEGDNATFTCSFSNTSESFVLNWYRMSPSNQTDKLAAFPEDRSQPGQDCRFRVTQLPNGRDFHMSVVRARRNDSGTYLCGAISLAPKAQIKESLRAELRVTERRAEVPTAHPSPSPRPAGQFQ

| Binder | PD1 Binding |
| --- | --- |
| B1 | 730 |
| B2 | 995 |
| B3 | 1240 |
| B4 | 1660 |
| B5 | 1300 |
| B6 | 1620 |
| B7 | 50 |
| B8 | 1680 |
| B9 | 1550 |
| B10 | 1380 |
| B11 | 653 |

target: T1, human IL-2; assay: HTRF IL-2:IL2RB

| Binder | IL2RB Blocking |
| --- | --- |
| B1 | 1610 |
| B2 | 1610 |
| B3 | 910 |
| B4 | 1610 |
| B5 | 1070 |
| B6 | 1780 |
| B7 | 1110 |
| B8 | 1810 |
| B9 | 1550 |
| B10 | 1210 |
| B11 | 1730 |

target: PD-1-Fc (UniProt Q15116 25-167, limits assumed); assay: cell-based or functional assay
Sequence (Q15116 25-167 limits assumed): as above

| Binder | IL-2 activity EC50, HEK-Blue IL-2 reporter cells, IgG1 coated wells (control) [nM] | IL-2 activity EC50, HEK-Blue IL-2 reporter cells, PD-1 coated wells [nM] |
| --- | --- | --- |
| B12 | 1.67 | 0.118 |
